Experimental findings from paper PMC3816987 (Journal of molecular recognition : JMR, 2010) are described below.

For test [1], the target named is T1, GST-free tubby-N (tubby N-terminus, 1M-242P) (mouse, UniProt P50586 1-242).
T1 sequence (looked up): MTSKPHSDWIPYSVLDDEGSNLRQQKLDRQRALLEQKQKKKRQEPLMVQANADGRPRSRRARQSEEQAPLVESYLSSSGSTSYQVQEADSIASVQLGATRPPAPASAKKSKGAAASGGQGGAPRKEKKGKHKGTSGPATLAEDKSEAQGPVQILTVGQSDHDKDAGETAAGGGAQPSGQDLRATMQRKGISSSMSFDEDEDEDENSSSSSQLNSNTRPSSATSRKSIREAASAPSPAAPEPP
The test can be described thus: phage binding assay.

Test [2] has as its target T2, GST fusion protein of Tulp1-N (1M-298Q) (mouse, UniProt Q9Z273 1-298).
T2 sequence (looked up): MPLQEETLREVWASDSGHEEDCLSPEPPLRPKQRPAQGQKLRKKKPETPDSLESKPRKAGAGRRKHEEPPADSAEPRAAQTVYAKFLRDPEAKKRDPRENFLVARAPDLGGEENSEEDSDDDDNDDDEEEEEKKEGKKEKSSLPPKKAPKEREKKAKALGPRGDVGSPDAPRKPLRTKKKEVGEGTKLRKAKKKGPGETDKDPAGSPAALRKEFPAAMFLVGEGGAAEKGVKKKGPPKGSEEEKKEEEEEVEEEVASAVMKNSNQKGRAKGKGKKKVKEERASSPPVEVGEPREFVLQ
In words: phage binding assay.

B1: Regulated endocrine-specific protein 18 (Resp18) phage clone, 68V-134K (domain or fragment, mouse, UniProt P47939-1 68-134, looked up)
chain: VPEGMFWADDIAYELMTKKVEHLSRLHPQYPCRKDMKAVSPTANAGVRSKQEEKLQLLSPQKSPTVK-{biotinylation tag(biotin)}
B1: the “binding specificity, clonal phage vs. control phage” value in test [1] is roughly 10.3 X.

B2: CCCTC-binding factor (Ctcf) phage clone, 136G-400T (domain or fragment, mouse, UniProt Q61164 136-400, looked up)
chain: GAYENEVSKEGLAESEPMICHTLPLPEGFQVVKVGANGEVETLEQGELPPQEDSSWQKDPDYQPPAKKTKKTKKSKLRYTEEGKDVDVSVYDFEEEQQEGLLSEVNAEKVVGNMKPPKPTKIKKKGVKKTFQCELCSYTCPRRSNLDRHMKSHTDERPHKCHLCGRAFRTVTLLRNHLNTHTGTRPHKCPDCDMAFVTSGELVRHRRYKHTHEKPFKCSMCDYASVEVSKLKRHIRSHTGERPFQCSLCSYASRDTYKLKRHMRT
modifications: biotin on the C-terminal biotinylation tag (E. coli BirA ligase)
As to B2, the results for the “binding specificity, clonal phage vs. control phage” value in test [2] and in test [1] were roughly 7.7 X and roughly 117 X, respectively.

B3: Hmg. nucleosomal binding domain 2 (Hmgn2) phage clone, 1M-56K (domain or fragment)
chain: not shown
modifications: biotin on the C-terminal biotinylation tag (E. coli BirA ligase)
Consider B3, for which the “binding specificity, clonal phage vs. control phage” value is roughly 37.8 X in test [2] and roughly 33.4 X in test [1].

B4: Tubby like protein 1 (Tulp1) phage clone, 125D-243E (domain or fragment, mouse, UniProt Q9Z273 125-243, looked up)
chain: DDDEEEEEKKEGKKEKSSLPPKKAPKEREKKAKALGPRGDVGSPDAPRKPLRTKKKEVGEGTKLRKAKKKGPGETDKDPAGSPAALRKEFPAAMFLVGEGGAAEKGVKKKGPPKGSEEE
modifications: biotin on the C-terminal biotinylation tag (E. coli BirA ligase)
As to B4, the “binding specificity, clonal phage vs. control phage” value is roughly 32.8 X in test [2] and roughly 49 X in test [1].

B5: IQ motif containing GTPase activating protein 2 (Iqgap2) phage clone, 1232E-1368E (domain or fragment, mouse, UniProt Q3UQ44 1232-1368, looked up)
chain: EKSDLLNELLESLGEVPTVESFLGEGAVDPNDPNKENTLNQLSKTEISLSLTSKYDVKDGEAVDGRSLMIKTKKLIIDVTRNQPGSTLTEILETPATGQQELEHAKDMESRAVVDSRTPEEGKQSQAVIEDARLPLE
modifications: biotin on the C-terminal biotinylation tag (E. coli BirA ligase)
For the molecule B5, the “binding specificity, clonal phage vs. control phage” value in test [1] was roughly 53.2 X.
